Data published in the supplement of paper PMC11246515.
± gives the standard deviation of the averaged measurements.

Test: total protein half-life in vivo (active degradation + dilution); higher = more stable protein
[1] = E. coli NCM3722 delta-clpP delta-lon delta-hslV, growth: N-lim chemostat, doubling time 6 h
[2] = E. coli NCM3722 delta-smpB, growth: N-lim chemostat, doubling time 6 h
[3] = wild type E. coli NCM3722, growth: C-lim chemostat, doubling time 3 h
[4] = wild type E. coli NCM3722, growth: C-lim chemostat, doubling time 6 h
[5] = wild type E. coli NCM3722, growth: C-lim chemostat, doubling time 12 h
[6] = E. coli NCM3722 delta-clpP, growth: N-lim chemostat, doubling time 6 h
[7] = E. coli NCM3722 delta-hslV, growth: N-lim chemostat, doubling time 6 h
[8] = E. coli NCM3722 delta-lon, growth: N-lim chemostat, doubling time 6 h
[9] = wild type E. coli NCM3722, growth: N-lim chemostat, doubling time 6 h
[10] = wild type E. coli NCM3722, growth: N-lim chemostat, doubling time 12 h
[11] = wild type E. coli NCM3722, growth: P-lim chemostat, doubling time 6 h
[12] = wild type E. coli NCM3722, growth: P-lim chemostat, doubling time 12 h

Sequence	total protein half-life in vivo [1]	total protein half-life in vivo [2]	total protein half-life in vivo [3]	total protein half-life in vivo [4]	total protein half-life in vivo [5]	total protein half-life in vivo [6]	total protein half-life in vivo [7]	total protein half-life in vivo [8]	total protein half-life in vivo [9]	total protein half-life in vivo [10]	total protein half-life in vivo [11]	total protein half-life in vivo [12]
MSQQRPDRIKQMLHYLWQHRHLSTQQAMELFGYAEATVRRDFQYIVNQYPGMIRGHGCLDFDDSTDDKEYVFDVKRTLQSVAKREIAALARTMIKDGDCFFLDSGSTCLELAKCLADARVKVICNDIKIANELGCFPHVESYIIGGLIRPGYFSVGESLALEMINAFSVERAFISCDALSLETGITNATMFEVGVKTRIIQRSREVILMADHSKFDAVEPHAVATLSCIKTIISDSGLPETIAQRYQRAGCQLFLPHSIK	6.15 ± 1.6 h	0.761 h	2 h	2.57 ± 0.049 h	3.04 ± 0.33 h							
MLDKIDRKLLALLQQDCTLSLQALAEAVNLTTTPCWKRLKRLEDDGILIGKVALLDPEKIGLGLTAFVLIKTQHHSSEWYCRFVTVVTEMPEVLGFWRMAGEYDYLMRVQVADMKRYDEFYKRLVNSVPGLSDVTSSFAMEQIKYTTSLPIE [P0ACJ5]	5.92 ± 0.82 h	5.08 ± 0.24 h	3.37 ± 0.6 h	5.09 ± 0.47 h	8.43 ± 3.3 h	4.67 ± 0.26 h	4.43 ± 1.7 h	5.95 h	4.34 ± 0.2 h	9.01 ± 4.2 h	4.45 h	10.3 ± 3.2 h
MTTNTVSRKVAWLRVVTLAVAAFIFNTTEFVPVGLLSDIAQSFHMQTAQVGIMLTIYAWVVALMSLPFMLMTSQVERRKLLICLFVVFIASHVLSFLSWSFTVLVISRIGVAFAHAIFWSITASLAIRMAPAGKRAQALSLIATGTALAMVLGLPLGRIVGQYFGWRMTFFAIGIGALITLLCLIKLLPLLPSEHSGSLKSLPLLFRRPALMSIYLLTVVVVTAHYTAYSYIEPFVQNIAGFSANFATALLLLLGGAGIIGSVIFGKLGNQYASALVSTAIALLLVCLALLLPAANSEIHLGVLSIFWGIAMMIIGLGMQVKVLALAPDATDVAMALFSGIFNIGIGAGALVGNQVSLHWSMSMIGYVGAVPAFAALIWSIIIFRRWPVTLEEQTQ	5.1 ± 0.12 h	4.997 ± 0.0071 h				4.77 h	4.16 h		4.68 h	7.998 ± 0.022 h	5.12 ± 0.23 h	8.61 ± 0.96 h
MDDQLKQSALDFHEFPVPGKIQVSPTKPLATQRDLALAYSPGVAAPCLEIEKDPLKAYKYTARGNLVAVISNGTAVLGLGNIGALAGKPVMEGKGVLFKKFAGIDVFDIEVDELDPDKFIEVVAALEPTFGGINLEDIKAPECFYIEQKLRERMNIPVFHDDQHGTAIISTAAILNGLRVVEKNISDVRMVVSGAGAAAIACMNLLVALGLQKHNIVVCDSKGVIYQGREPNMAETKAAYAVVDDGKRTLDDVIEGADIFLGCSGPKVLTQEMVKKMARAPMILALANPEPEILPPLAKEVRPDAIICTGRSDYPNQVNNVLCFPFIFRGALDVGATAINEEMKLAAVRAIAELAHAEQSEVVASAYGDQDLSFGPEYIIPKPFDPRLIVKIAPAVAKAAMESGVATRPIADFDVYIDKLTEFVYKTNLFMKPIFSQARKAPKRVVLPEGEEARVLHATQELVTLGLAKPILIGRPNVIEMRIQKLGLQIKAGVDFEIVNNESDPRFKEYWTEYFQIMKRRGVTQEQAQRALISNPTVIGAIMVQRGEADAMICGTVGDYHEHFSVVKNVFGYRDGVHTAGAMNALLLPSGNTFIADTYVNDEPDAEELAEITLMAAETVRRFGIEPRVALLSHSNFGSSDCPSSSKMRQALELVRERAPELMIDGEMHGDAALVEAIRNDRMPDSSLKGSANILVMPNMEAARISYNLLRVSSSEGVTVGPVLMGVAKPVHVLTPIASVRRIVNMVALAVVEAQTQPL	5.85 ± 0.24 h	5.6 ± 0.15 h	3.13 ± 0.15 h	5.948 ± 0.055 h	10.7 ± 0.31 h	6.35 ± 2.2 h	5.84 ± 0.13 h	7.1 ± 0.61 h	5.97 ± 0.3 h	10.983 ± 0.005 h	6.35 ± 0.11 h	12.2 ± 1.3 h
MRNFDLSPLMRQWIGFDKLANALQNAGESQSFPPYNIEKSDDNHYRITLALAGFRQEDLEIQLEGTRLSVKGTPEQPKEEKKWLHQGLMNQPFSLSFTLAENMEVSGATFVNGLLHIDLIRNEPEPIAAQRIAISERPALNS [P0C058]	6.3 ± 0.16 h	1.42 h	1.03 h		1.59 h	2.21 ± 0.097 h			4.47 h	3.19 h		
MSSSRPVFRSRWLPYLLVAPQLIITVIFFIWPAGEALWYSLQSVDPFGFSSQFVGLDNFVTLFHDSYYLDSFWTTIKFSTFVTVSGLLVSLFFAALVEYIVRGSRFYQTLMLLPYAVAPAVAAVLWIFLFNPGRGLITHFLAEFGYDWNHAQNSGQAMFLVVFASVWKQISYNFLFFYAALQSIPRSLIEAAAIDGAGPIRRFFKIALPLIAPVSFFLLVVNLVYAFFDTFPVIDAATSGGPVQATTTLIYKIYREGFTGLDLASSAAQSVVLMFLVIVLTVVQFRYVESKVRYQ											5.34 h	11.9 ± 0.84 h
MQYIKIHALDNVAVALADLAEGTEVSVDNQTVTLRQDVARGHKFALTDIAKGANVIKYGLPIGYALADIAAGVHVHAHNTRTNLSDLDQYRYQPDFQDLPAQAADREVQIYRRANGDVGVRNELWILPTVGCVNGIARQIQNRFLKETNNAEGTDGVFLFSHTYGCSQLGDDHINTRTMLQNMVRHPNAGAVLVIGLGCENNQVAAFRETLGDIDPERVHFMICQQQDDEIEAGIEHLHQLYNVMRNDKREPGKLSELKFGLECGGSDGLSGITANPMLGRFSDYVIANGGTTVLTEVPEMFGAEQLLMDHCRDEATFEKLVTMVNDFKQYFIAHDQPIYENPSPGNKAGGITTLEDKSLGCTQKAGSSVVVDVLRYGERLKTPGLNLLSAPGNDAVATSALAGAGCHMVLFSTGRGTPYGGFVPTVKIATNSELAAKKKHWIDFDAGQLIHGKAMPQLLEEFIDTIVEFANGKQTCNERNDFRELAIFKSGVTL	4.17 ± 0.22 h	2.51 ± 0.36 h	2.61 ± 0.27 h	3.9 ± 0.23 h	4.43 ± 0.69 h	3.03 ± 0.15 h	2.65 ± 0.042 h	3.4 h	2.63 ± 0.13 h	3.74 ± 0.76 h	3.94 ± 1.4 h	6.84 ± 1.4 h
MSENSIRLTQYSHGAGCGCKISPKVLETILHSEQAKFVDPNLLVGNETRDDAAVYDLGNGTSVISTTDFFMPIVDNPFDFGRIAATNAISDIFAMGGKPIMAIAILGWPINKLSPEIAREVTEGGRYACRQAGIALAGGHSIDAPEPIFGLAVTGIVPTERVKKNSTAQAGCKLFLTKPLGIGVLTTAEKKSLLKPEHQGLATEVMCRMNIAGASFANIEGVKAMTDVTGFGLLGHLSEMCQGAGVQARVDYEAIPKLPGVEEYIKLGAVPGGTERNFASYGHLMGEMPREVRDLLCDPQTSGGLLLAVMPEAENEVKATAAEFGIELTAIGELVPARGGRAMVEIR	3.58 ± 0.34 h	2.76 ± 0.077 h	3.01 ± 0.23 h	4.95 ± 0.13 h	8.899 ± 0.067 h	2.94 ± 0.2 h	2.5242 ± 0.00055 h	3.85 ± 0.73 h	2.816 ± 0.0089 h	3.67 ± 0.27 h	5.34 ± 0.23 h	10.1 ± 0.65 h
MRTFSGKRSTLALAIAGVTAMSGFMAMPEARAEGFIDDSTLTGGIYYWQRERDRKDVTDGDKYKTNLSHSTWNANLDFQSGYAADMFGLDIAAFTAIEMAENGDSSHPNEIAFSKSNKAYDEDWSGDKSGISLYKAAAKFKYGPVWARAGYIQPTGQTLLAPHWSFMPGTYQGAEAGANFDYGDAGALSFSYMWTNEYKAPWHLEMDEFYQNDKTTKVDYLHSFGAKYDFKNNFVLEAAFGQAEGYIDQYFAKASYKFDIAGSPLTTSYQFYGTRDKVDDRSVNDLYDGTAWLQALTFGYRAADVVDLRLEGTWVKADGQQGYFLQRMTPTYASSNGRLDIWWDNRSDFNANGEKAVFFGAMYDLKNWNLPGFAIGASYVYAWDAKPATWQSNPDAYYDKNRTIEESAYSLDAVYTIQDGRAKGTMFKLHFTEYDNHSDIPSWGGGYGNIFQDERDVKFMVIAPFTIF			1.45 h	2.07 h	2.36 h							
